pKd: −log10 of the molar value.
Experiments:
factor X = factor X (UniProt P00742); experiment: cell-based or functional assay
VIIaGln298 (human) = VIIaGln298 (human) (UniProt P08709); experiment: cell-based or functional assay
[1] = target: VIIaGln298 in complex with TF1-218 (human) (UniProt P08709); experiment: cell-based or functional assay
[2] = target: wild-type VIIa in complex with TF1-218 (human) (UniProt P08709); experiment: cell-based or functional assay
[3] = target: full-length recombinant human tissue factor (human) (UniProt P13726); experiment: SPR, full-length TF captured by TF9-10H10, VIIa premixed with 10 µM 5L15

UniProt P00742, sequence (P00742 41-488 limits assumed): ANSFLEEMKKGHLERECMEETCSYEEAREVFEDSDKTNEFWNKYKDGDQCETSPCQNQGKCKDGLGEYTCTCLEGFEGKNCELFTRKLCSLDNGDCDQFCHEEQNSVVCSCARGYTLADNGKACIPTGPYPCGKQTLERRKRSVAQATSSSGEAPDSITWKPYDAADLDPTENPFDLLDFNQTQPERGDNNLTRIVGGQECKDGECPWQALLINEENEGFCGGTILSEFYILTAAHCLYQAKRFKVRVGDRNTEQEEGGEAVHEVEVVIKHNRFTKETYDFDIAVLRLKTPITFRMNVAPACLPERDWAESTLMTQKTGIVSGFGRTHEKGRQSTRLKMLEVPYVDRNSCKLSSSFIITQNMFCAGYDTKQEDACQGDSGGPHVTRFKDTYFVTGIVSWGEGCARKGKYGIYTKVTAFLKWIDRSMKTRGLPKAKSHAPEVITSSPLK

## VIIaGln298 bound to phospholipid reconstituted T.F. (from UniProt P08709 61-212; P08709 213-466; P13726 33-295)
Factor X
  KM (nM) of factor X activation by VIIa bound to phospholipid reconstituted T.F.: 68 nM

## antithrombin III (from UniProt P01008 33-464)
VIIaGln298 (human)
  time to 50% inhibition of amidolytic activity of free VIIa by 0.5 µM antithrombin III with 5 U/ml heparin: 31 min
[1]
  time to 50% inhibition of amidolytic activity of T.F.-VIIa complex by 0.5 µM antithrombin III with 5 U/ml heparin: 4.5 min
[2]
  time to 50% inhibition of amidolytic activity of T.F.-VIIa complex by 0.5 µM antithrombin III with 5 U/ml heparin: 6 min

## wild-type VIIa bound to phospholipid reconstituted T.F. (from UniProt P08709 61-212; P08709 213-466; P13726 33-295)
Factor X
  KM (nM) of factor X activation by VIIa bound to phospholipid reconstituted T.F.: 61 nM

## wild-type VIIa premixed with 10 µM 5L15 (from UniProt P08709 61-212; P08709 213-466)
[3]
  pKd: 9.10

— patent publication US20040033566A1
